US7964369 (Stanford University, dated 2011)

Molecular target: T1, SOS vector alone (hSOS without GRAIL) (human, UniProt Q07889 1-1066)
T1 construct: Negative control bait of the yeast two-hybrid screen
T1 sequence (looked up): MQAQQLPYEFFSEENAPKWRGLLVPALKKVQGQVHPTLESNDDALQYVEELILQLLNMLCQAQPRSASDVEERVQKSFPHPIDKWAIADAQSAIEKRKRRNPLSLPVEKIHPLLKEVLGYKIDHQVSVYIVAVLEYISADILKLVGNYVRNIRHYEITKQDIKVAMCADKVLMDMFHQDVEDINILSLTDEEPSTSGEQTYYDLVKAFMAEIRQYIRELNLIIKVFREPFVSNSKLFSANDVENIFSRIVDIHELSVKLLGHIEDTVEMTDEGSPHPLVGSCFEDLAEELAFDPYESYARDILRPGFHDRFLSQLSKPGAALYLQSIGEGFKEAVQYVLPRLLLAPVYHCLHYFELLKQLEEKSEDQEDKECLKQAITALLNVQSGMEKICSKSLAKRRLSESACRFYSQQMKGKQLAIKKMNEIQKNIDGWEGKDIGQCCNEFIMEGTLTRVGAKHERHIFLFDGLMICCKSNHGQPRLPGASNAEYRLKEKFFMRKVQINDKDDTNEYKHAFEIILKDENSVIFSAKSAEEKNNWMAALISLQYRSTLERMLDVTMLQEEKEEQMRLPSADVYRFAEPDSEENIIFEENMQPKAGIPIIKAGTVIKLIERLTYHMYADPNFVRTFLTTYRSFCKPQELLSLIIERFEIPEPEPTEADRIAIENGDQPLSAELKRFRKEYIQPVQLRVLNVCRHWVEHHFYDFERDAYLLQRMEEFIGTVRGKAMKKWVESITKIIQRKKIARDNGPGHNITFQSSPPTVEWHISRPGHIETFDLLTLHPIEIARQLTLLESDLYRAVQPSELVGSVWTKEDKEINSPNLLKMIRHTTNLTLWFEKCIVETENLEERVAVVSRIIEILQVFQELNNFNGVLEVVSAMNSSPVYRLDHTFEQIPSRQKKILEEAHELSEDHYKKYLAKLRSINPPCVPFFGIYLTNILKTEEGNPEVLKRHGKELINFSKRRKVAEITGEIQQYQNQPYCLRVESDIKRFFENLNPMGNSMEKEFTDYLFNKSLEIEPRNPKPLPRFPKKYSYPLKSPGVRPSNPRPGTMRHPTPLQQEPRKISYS
Assay: yeast two-hybrid (CytoTrap), secondary screen, growth on galactose at 37 C
Procedure: Table I: A mouse liver library cloned into pMyr vector was purchased from Stratagene (La Jolla, CA). The C-terminal half of GRAIL, starting at F225 was PCR amplified, cloned into the pSOS vector, and used as bait. Yeast competent cells were co-transformed with either the bait and library or control vectors as described in the CytoTrap instruction manual (Stratagene). More than 5 x 10^5 clones were screened. Colonies displaying growth on galactose but not glucose at 37° C. were considered to be putative positives and were evaluated in a secondary screen. Colonies growing in the secondary screen on galactose at 37° C. and in the presence of the GRAIL-SOS bait vector, but not the SOS vector alone, were considered true interactors and sequenced.
Yeast and bacterial two-hybrid analysis. A mouse liver library cloned into pMyr vector was purchased from Stratagene (La Jolla, Calif.). The C-terminal half of Grail, starting at F225, was PCR amplified, cloned into the pSOS vector, and used as bait. Yeast competent cells were co-transformed with either the bait and library or control vectors as described in the CytoTrap instruction manual (Stratagene). More than 5 ×10^5 clones were screened. Colonies displaying growth on galactose but not glucose at 37° C. were considered to be putative positives and were used on a secondary screen. […]

binding result: no binding
B1: clone 6A-36 (98% identical to human FLJ20113, OTUBAIN-1) (enzyme, mouse, UniProt Q7TQI3 97-271, looked up)
chain: GFSHLEALLDDSKELQRFKAVSAKSKEDLVSQGFTEFTIEDFHNTFMDLIEQVEKQTSVADLLASFNDQSTSDYLVVYLRLLTSGYLQRESKFFEHFIEGGRTVKEFCQQEVEPMCKESDHIHIIALAQALSVSIQVEYMDRGEGGTTNPHVFPEGSEPKVYLLYRPGHYDILYK
notes: Partial clone of mouse otubain-1; also called 525 bp insert; 525 bp cDNA fragment; not shown: myristoylation signal of the pMyr plasmid
